Assay results as given in US20250388702A1 (Dana-Farber, published 2025).

Legend:
Human KIR3DL3 [1] = target: T1, Human KIR3DL3 (human, UniProt Q8N743 26-410); experiment: cell-based or functional assay
KIR3DL1 = target: T2, KIR3DL1 (UniProt P43629 22-444, limits assumed); experiment: HEK293 cell microarray
T2 construct: whole, on cells
Experimental: (§1) Replicate microarray slides expressing a complete KIR family cDNA panel were fixed and blocked with buffer containing PBS/0.5% BSA and incubated for 1 hour at room temperature with individual KIR3DL3 mAb hybridoma supernatants at 1:5, 1:25 and 1:250 dilutions in PBS/0.1% BSA. Cell arrays were washed with PBS and incubated for 1 hour at room temperature in PBS/0.1% BSA containing AF647-conjugated goat anti-mouse IgG (H+L) (Life Technologies, A21235). Slides were washed with PBS, dried, and imaged for ZsGreen1 and AF647 fluorescence.
(§2) In Table 4, replicate microarray slides expressing the KIR family cDNA panel (as in FIG. 1A, FIG. 2B, and FIG. 2C) were fixed and blocked with buffer containing PBS/0.5% BSA and incubated for 1 hour at room temperature with individual KIR3DL3 mAb hybridoma supernatants at 1:5, 1:25 and 1:250 dilutions in PBS/0.1% BSA. Cell arrays were washed with PBS and incubated for 1 hour at room temperature in PBS/0.1% BSA containing AF647-conjugated goat anti-mouse IgG (H+L) (Life Technologies, A21235). Slides were washed with PBS, dried, and imaged for ZsGreen1 and AF647 fluorescence.

KIR3DL2 = target: T3, KIR3DL2 (UniProt P43630 22-455, limits assumed); experiment: HEK293 cell microarray
T3 construct: whole, on cells
Experimental: as §1, §2

KIR2DL1 = target: T4, KIR2DL1 (UniProt P43626 22-348, limits assumed); experiment: HEK293 cell microarray
T4 construct: whole, on cells
Experimental: as §1, §2

KIR2DL2 = target: T5, KIR2DL2 (UniProt P43627 22-348, limits assumed); experiment: HEK293 cell microarray
T5 construct: whole, on cells
Experimental: as §1, §2

KIR2DL3 = target: T6, KIR2DL3 (UniProt P43628 22-341, limits assumed); experiment: HEK293 cell microarray
T6 construct: whole, on cells
Experimental: as §1, §2

KIR2DL4 = target: T7, KIR2DL4 (UniProt Q99706 22-377, limits assumed); experiment: HEK293 cell microarray
T7 construct: whole, on cells
Experimental: as §1, §2

KIR2DL5A = target: T8, KIR2DL5A (UniProt Q8N109 22-375, limits assumed); experiment: HEK293 cell microarray
T8 construct: whole, on cells
Experimental: as §1, §2

KIR2DL5B = target: T9, KIR2DL5B (UniProt Q8NHK3 22-375, limits assumed); experiment: HEK293 cell microarray
T9 construct: whole, on cells
Experimental: as §1, §2

KIR2DS1 = target: T10, KIR2DS1 (UniProt Q14954 22-304, limits assumed); experiment: HEK293 cell microarray
T10 construct: whole, on cells
Experimental: as §1, §2

KIR2DS2 = target: T11, KIR2DS2 (UniProt P43631 22-304, limits assumed); experiment: HEK293 cell microarray
T11 construct: whole, on cells
Experimental: as §1, §2

KIR2DS3 = target: T12, KIR2DS3 (UniProt Q14952 22-304, limits assumed); experiment: HEK293 cell microarray
T12 construct: whole, on cells
Experimental: as §1, §2

KIR2DS5 = target: T13, KIR2DS5 (UniProt Q14953 22-304, limits assumed); experiment: HEK293 cell microarray
T13 construct: whole, on cells
Experimental: as §1, §2

KIR3DS1 = target: T14, KIR3DS1 (UniProt Q14943 22-382, limits assumed); experiment: HEK293 cell microarray
T14 construct: whole, on cells
Experimental: as §1, §2

Human KIR3DL3 [2] = target: T1, Human KIR3DL3; experiment: flow cytometry, KIR3DL3-transfected 300.19 cells
Human KIR3DL3 [3] = target: T1, Human KIR3DL3; experiment: flow cytometry; blockade of HHLA2-mIgG2a binding to KIR3DL3-transfected 300.19 cells
Experimental: (§3) The indicated concentrations of KIR3DL3 mAbs were pre-incubated with KIR3DL3 transfected 300.19 cells for 30 minutes at 4° C. […] EC50 and IC50 analysis were conducted using GraphPad Prism®.

Human KIR3DL3 [4] = target: T1, Human KIR3DL3; experiment: flow cytometry, KIR3DL3-transfected 300.19 cells; remark: listed apart in the source
Human KIR3DL3 [5] = target: T1, Human KIR3DL3; experiment: flow cytometry; blockade of HHLA2-mIgG2a binding to KIR3DL3-transfected cells
Experimental: as §3

[6] = target: T15, Human KIR3DL3, Sino Biological Cat#: 16055-H08H (human, UniProt Q8N743 26-322); experiment: BLI (Octet RED96), antibody captured on the sensor, antigen in solution, 1:1 model
T15 construct: Bought soluble antigen; also called KIR3DL3 (Octet antigen)
Experimental: Binding experiments were performed on Octat Red af 25″° C. The human antibodies were loaded onto Anti-higG Fe Capture biosensors and the mouse antibodies were loaded onto Anti-migG Fe Capture biosensors both for 300 seconds. The ligand loaded sensors were dipped into a 3-fold series dilution (starting at 300 nad) of the antigens (PD-1 and KIR3DL3) for 240 seconds followed by dissociation for 400 seconds. Kinetic constanta were calculated using a monovalent (1:1) binding model Antigen: Haman PD1, Sino Biological Cat #: HPLC-10377-HOSH.

T15 sequence (Q8N743 other isoform, or with tags, fused parts or gaps H08H H08H limits assumed): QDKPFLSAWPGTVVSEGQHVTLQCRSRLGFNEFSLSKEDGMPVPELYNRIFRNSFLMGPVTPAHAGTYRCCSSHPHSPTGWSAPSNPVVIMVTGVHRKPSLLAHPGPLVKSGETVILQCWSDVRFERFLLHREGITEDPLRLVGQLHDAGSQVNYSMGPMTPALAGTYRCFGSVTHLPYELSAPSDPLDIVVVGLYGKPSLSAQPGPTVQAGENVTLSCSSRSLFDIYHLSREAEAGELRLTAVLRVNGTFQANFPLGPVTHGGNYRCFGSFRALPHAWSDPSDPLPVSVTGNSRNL
T12 sequence (Q14952 22-304 limits assumed): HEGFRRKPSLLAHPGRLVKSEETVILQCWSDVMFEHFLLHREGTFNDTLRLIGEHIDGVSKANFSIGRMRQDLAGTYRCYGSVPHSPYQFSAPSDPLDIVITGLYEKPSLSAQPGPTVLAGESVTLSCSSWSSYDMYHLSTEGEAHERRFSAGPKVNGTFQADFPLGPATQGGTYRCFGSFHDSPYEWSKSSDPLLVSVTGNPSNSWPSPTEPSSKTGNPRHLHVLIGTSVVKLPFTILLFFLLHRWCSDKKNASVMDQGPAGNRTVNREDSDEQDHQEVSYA
T10 sequence (Q14954 22-304 limits assumed): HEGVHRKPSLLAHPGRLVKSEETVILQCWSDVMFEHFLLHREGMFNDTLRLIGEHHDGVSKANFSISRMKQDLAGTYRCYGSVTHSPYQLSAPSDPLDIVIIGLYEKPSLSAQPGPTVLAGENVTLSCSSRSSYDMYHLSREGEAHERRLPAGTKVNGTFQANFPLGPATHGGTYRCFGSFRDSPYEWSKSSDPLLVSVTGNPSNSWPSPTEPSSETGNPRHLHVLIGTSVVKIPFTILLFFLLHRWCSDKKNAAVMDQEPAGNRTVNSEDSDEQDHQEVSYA
T3 sequence (P43630 22-455 limits assumed): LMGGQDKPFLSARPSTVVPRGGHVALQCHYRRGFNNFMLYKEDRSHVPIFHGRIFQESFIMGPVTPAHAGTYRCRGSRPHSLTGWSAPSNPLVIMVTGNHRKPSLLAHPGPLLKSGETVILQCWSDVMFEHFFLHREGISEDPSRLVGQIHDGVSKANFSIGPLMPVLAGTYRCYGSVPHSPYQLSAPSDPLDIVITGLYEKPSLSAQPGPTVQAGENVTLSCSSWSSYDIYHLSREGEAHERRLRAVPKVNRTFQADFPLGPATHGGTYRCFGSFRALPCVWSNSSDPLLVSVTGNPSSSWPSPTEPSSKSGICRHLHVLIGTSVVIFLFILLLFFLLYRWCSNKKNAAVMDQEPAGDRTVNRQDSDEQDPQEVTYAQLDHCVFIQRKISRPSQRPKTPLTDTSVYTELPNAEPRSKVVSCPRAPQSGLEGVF
T14 sequence (Q14943 22-382 limits assumed): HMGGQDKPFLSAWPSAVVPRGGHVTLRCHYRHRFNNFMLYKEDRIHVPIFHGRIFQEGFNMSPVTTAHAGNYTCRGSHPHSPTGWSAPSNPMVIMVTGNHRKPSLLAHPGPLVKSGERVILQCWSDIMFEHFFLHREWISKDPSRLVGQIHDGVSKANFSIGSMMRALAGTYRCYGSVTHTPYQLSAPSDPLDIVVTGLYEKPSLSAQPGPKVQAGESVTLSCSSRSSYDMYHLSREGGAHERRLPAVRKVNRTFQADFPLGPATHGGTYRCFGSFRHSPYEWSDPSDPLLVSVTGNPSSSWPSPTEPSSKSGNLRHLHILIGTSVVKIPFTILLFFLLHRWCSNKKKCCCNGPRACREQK
T13 sequence (Q14953 22-304 limits assumed): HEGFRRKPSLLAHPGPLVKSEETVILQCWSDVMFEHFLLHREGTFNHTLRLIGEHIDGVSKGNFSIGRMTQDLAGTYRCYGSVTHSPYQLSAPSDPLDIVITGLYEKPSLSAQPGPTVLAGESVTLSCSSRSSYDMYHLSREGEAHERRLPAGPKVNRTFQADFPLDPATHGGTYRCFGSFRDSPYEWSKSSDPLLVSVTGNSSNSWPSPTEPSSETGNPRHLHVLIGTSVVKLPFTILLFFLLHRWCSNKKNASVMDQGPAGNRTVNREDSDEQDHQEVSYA
T4 sequence (P43626 22-348 limits assumed): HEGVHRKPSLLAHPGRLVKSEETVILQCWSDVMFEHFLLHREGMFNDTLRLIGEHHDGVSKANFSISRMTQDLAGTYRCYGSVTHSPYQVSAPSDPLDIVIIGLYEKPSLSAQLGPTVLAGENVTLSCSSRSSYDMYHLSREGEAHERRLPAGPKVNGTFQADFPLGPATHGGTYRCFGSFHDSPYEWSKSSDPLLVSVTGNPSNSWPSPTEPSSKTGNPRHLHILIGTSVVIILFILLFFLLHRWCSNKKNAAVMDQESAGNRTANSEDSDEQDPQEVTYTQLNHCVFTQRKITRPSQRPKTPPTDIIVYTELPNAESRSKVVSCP
T5 sequence (P43627 22-348 limits assumed): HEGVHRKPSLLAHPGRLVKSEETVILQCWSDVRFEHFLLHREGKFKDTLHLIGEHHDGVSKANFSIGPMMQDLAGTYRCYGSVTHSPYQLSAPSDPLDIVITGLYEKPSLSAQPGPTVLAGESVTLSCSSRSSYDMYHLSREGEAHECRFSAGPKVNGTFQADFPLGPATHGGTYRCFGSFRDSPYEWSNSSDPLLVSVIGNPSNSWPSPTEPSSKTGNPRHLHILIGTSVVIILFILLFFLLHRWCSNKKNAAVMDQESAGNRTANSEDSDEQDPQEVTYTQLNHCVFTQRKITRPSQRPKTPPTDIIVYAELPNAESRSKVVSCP
T9 sequence (Q8NHK3 22-375 limits assumed): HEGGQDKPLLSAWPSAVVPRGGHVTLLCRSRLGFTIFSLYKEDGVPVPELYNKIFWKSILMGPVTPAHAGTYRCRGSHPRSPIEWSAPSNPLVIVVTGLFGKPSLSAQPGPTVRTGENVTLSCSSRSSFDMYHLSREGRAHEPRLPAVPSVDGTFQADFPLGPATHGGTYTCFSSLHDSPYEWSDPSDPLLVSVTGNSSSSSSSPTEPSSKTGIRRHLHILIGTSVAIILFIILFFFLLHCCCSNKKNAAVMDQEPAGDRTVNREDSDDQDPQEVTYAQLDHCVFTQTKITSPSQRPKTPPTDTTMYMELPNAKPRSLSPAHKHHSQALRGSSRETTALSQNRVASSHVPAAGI
T11 sequence (P43631 22-304 limits assumed): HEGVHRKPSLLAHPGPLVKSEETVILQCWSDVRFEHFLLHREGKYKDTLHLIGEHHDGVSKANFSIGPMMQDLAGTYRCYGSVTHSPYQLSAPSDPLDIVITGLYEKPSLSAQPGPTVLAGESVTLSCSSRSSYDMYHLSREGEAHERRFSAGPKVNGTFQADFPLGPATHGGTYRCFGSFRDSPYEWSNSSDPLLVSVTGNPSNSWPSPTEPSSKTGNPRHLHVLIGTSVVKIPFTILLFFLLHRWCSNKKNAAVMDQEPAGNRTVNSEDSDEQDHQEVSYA
T6 sequence (P43628 22-341 limits assumed): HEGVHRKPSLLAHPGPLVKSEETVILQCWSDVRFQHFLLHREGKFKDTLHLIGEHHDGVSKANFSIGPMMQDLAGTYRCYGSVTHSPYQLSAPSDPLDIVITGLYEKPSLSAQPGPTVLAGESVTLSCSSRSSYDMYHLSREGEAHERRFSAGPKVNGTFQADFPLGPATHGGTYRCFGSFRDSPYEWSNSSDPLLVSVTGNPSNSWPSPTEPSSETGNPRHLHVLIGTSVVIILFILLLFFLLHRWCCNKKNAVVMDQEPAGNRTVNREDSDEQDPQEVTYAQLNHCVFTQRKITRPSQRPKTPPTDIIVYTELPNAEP
T2 sequence (P43629 22-444 limits assumed): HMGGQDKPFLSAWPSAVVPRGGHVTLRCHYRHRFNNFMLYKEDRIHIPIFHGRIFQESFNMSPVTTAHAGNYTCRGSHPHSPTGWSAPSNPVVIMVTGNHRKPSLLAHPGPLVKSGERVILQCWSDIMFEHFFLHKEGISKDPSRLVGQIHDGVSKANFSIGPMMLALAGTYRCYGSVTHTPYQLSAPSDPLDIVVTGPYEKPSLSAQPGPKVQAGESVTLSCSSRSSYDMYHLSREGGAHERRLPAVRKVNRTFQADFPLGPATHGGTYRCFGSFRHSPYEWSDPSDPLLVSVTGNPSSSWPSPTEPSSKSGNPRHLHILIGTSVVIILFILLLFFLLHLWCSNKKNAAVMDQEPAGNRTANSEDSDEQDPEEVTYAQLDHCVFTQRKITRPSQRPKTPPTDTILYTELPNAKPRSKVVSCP
T1 sequence (Q8N743 26-410 H321N limits assumed): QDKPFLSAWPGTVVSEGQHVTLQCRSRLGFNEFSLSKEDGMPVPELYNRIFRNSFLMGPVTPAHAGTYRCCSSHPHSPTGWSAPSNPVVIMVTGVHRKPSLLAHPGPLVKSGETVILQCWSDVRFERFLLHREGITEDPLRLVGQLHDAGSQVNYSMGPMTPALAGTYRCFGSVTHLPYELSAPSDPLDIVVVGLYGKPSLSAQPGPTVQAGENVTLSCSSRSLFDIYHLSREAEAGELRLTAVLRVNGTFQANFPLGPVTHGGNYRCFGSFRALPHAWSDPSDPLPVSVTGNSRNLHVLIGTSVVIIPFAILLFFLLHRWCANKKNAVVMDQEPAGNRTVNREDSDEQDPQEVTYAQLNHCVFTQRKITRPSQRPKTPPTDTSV
T7 sequence (Q99706 22-377 limits assumed): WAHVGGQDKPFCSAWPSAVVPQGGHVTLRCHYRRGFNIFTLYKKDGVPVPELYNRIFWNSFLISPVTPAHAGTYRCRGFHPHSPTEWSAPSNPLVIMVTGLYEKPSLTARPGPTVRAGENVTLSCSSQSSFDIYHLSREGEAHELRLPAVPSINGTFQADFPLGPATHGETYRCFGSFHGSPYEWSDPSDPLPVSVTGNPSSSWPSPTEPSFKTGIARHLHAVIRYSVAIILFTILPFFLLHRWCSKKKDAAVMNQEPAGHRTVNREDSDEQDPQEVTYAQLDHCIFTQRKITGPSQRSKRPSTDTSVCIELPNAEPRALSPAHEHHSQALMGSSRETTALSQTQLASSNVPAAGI
T8 sequence (Q8N109 22-375 limits assumed): as the sequence (Q8NHK3 22-375 limits assumed) above, with D152N, S174G counted along it

Binder	Jurkat IL-2 Luciferase Activation, EC50 (Human KIR3DL3 [1])	Jurkat IL-2 Luciferase, Fold Activation (Human KIR3DL3 [1])	binding result (KIR3DL1)	binding result (KIR3DL2)	binding result (KIR2DL1)	binding result (KIR2DL2)	binding result (KIR2DL3)	binding result (KIR2DL4)	binding result (KIR2DL5B)	binding result (KIR2DS1)	binding result (KIR2DS2)	binding result (KIR2DS3)	binding result (KIR2DS5)	binding result (KIR3DS1)	Kd (Human KIR3DL3 [2])	IC50 (Human KIR3DL3 [3])	further results
KIR3DL3 mAb 574.2.1C7.D2.6.5 (antibody, IgG1, V domains shown, Mouse hybridoma antibody, IgG1; only variable domains given; also called AVS-3698) VH: QVQLQQSGAELMKPGASVKISCKATGYTFSNYWIEWIKQRPGHGLEWIGEILPGSGSTNYNEKFKGKATFTAATSSNTAYMQLSSLTSEDSAVYYCARRVPDYYGSRYYFDYWGQGTTLTVSS VL: NIVMTQSPKSMSMSVGERVTLSCKASENVGIYVSWYQQKPEQSPKLLIYGASNRYTGVPDRFTGSGSATDFTLTISSVQAEDLADYHCGQSYNYPFTFGSGTKLEIK	77 µg/mL	8.2 fold	no binding (tested: supernatant 1:5, 1:25, 1:250)	no binding (tested: supernatant 1:5, 1:25, 1:250)	no binding (tested: supernatant 1:5, 1:25, 1:250)	no binding (tested: supernatant 1:5, 1:25, 1:250)	no binding (tested: supernatant 1:5, 1:25, 1:250)	no binding (tested: supernatant 1:5, 1:25, 1:250)	no binding (tested: supernatant 1:5, 1:25, 1:250)	no binding (tested: supernatant 1:5, 1:25, 1:250)	no binding (tested: supernatant 1:5, 1:25, 1:250)	no binding (tested: supernatant 1:5, 1:25, 1:250)	no binding (tested: supernatant 1:5, 1:25, 1:250)	no binding (tested: supernatant 1:5, 1:25, 1:250)	0.77 µg/mL	0.32 µg/mL	binding result (KIR2DL5A): no binding (tested: supernatant 1:5, 1:25, 1:250)
KIR3DL3 mAb 574.2.2D8.6.9 (antibody, IgG2b, V domains shown, Mouse hybridoma antibody, IgG2b; also called AVS-3702) VH: DVQLVESGGGLVQPGGSRKLSCAASGFTFSYFGMHWVRRAPEKGLEWVAFISSDSTTIYYTDTVKGRFTISRDNPKNTLFLQMTSLRSEDTAIYYCARFYDGAMDYWGQGTSVTVST VL: DIVMTQSQKFMSTSVGDRVSITCKASQSVRTAVAWYQQKPGQSPKVLIYLASNRHTGVPDRFTGSGSGTDFTLTISNVQSEDLADYFCLQHWNYPLTFGAGTKLELK	1.3 µg/mL	14.9 fold	no binding (tested: supernatant 1:5, 1:25, 1:250)	no binding (tested: supernatant 1:5, 1:25, 1:250)	no binding (tested: supernatant 1:5, 1:25, 1:250)	no binding (tested: supernatant 1:5, 1:25, 1:250)	no binding (tested: supernatant 1:5, 1:25, 1:250)	no binding (tested: supernatant 1:5, 1:25, 1:250)	no binding (tested: supernatant 1:5, 1:25, 1:250)	no binding (tested: supernatant 1:5, 1:25, 1:250)	no binding (tested: supernatant 1:5, 1:25, 1:250)	no binding (tested: supernatant 1:5, 1:25, 1:250)	no binding (tested: supernatant 1:5, 1:25, 1:250)	no binding (tested: supernatant 1:5, 1:25, 1:250)	0.46 µg/mL	0.21 µg/mL	
KIR3DL3 mAb 574.2.2F11.2.7.4 (antibody, IgG2b, V domains shown, Parental mouse hybridoma antibody, IgG2b; only variable domains given; also called AVS-3703) VH: DVQLVESGGGLVQPGGSRKLSCAASGFTFSYFGMHWVRRAPEKGLEWVAFISSDSTTIYYTDTVKGRFTISRDNPKNTLFLQMTSLRSEDTAIYYCARFYDGAMDYWGQGTSVTVST VL: DIVMTQSQKFMSTSVGDRVSITCKASQSVRTAVAWYQQKPGQSPKVLIYLASNRHTGVPDRFTGSGSGTDFTLTISNVQSEDLADYFCLQHWNYPLTFGAGTKLELK	1.25 µg/mL	17.1 fold	no binding (tested: supernatant 1:5, 1:25, 1:250)	no binding (tested: supernatant 1:5, 1:25, 1:250)	no binding (tested: supernatant 1:5, 1:25, 1:250)	no binding (tested: supernatant 1:5, 1:25, 1:250)	no binding (tested: supernatant 1:5, 1:25, 1:250)	no binding (tested: supernatant 1:5, 1:25, 1:250)	no binding (tested: supernatant 1:5, 1:25, 1:250)	no binding (tested: supernatant 1:5, 1:25, 1:250)	no binding (tested: supernatant 1:5, 1:25, 1:250)	no binding (tested: supernatant 1:5, 1:25, 1:250)	no binding (tested: supernatant 1:5, 1:25, 1:250)	no binding (tested: supernatant 1:5, 1:25, 1:250)	0.43 µg/mL	0.16 µg/mL	EC50 (Human KIR3DL3 [4]): 0.43 µg/mL; IC50 (Human KIR3DL3 [5]): 0.42 µg/mL; Kd [6]: 0.506 nM; koff [6]: 0.000118 s⁻¹; kon [6]: 233000 M⁻¹ s⁻¹
KIR3DL3 mAb 574.2.2H1.11.6 (antibody, IgG2b, V domains shown, Mouse hybridoma antibody, IgG2b; only variable domains given; also called AVS-3704) VH: DVQLVESGGGLVQPGGSRKLSCAASGFTFSYFGMHWVRRAPEKGLEWVAFISSDSTTIYYTDTVKGRFTISRDNPKNTLFLQMTSLRSEDTAIYYCARFYDGAMDYWGQGTSVTVST VL: DIVMTQSQKFMSTSVGDRVSITCKASQSVRTAVAWYQQKPGQSPKVLIYLASNRHTGVPDRFTGSGSGTDFTLTISNVQSEDLADYFCLQHWNYPLTFGAGTKLELK	1.79 µg/mL	16.2 fold	no binding (tested: supernatant 1:5, 1:25, 1:250)	no binding (tested: supernatant 1:5, 1:25, 1:250)	no binding (tested: supernatant 1:5, 1:25, 1:250)	no binding (tested: supernatant 1:5, 1:25, 1:250)	no binding (tested: supernatant 1:5, 1:25, 1:250)	no binding (tested: supernatant 1:5, 1:25, 1:250)	no binding (tested: supernatant 1:5, 1:25, 1:250)	no binding (tested: supernatant 1:5, 1:25, 1:250)	no binding (tested: supernatant 1:5, 1:25, 1:250)	no binding (tested: supernatant 1:5, 1:25, 1:250)	no binding (tested: supernatant 1:5, 1:25, 1:250)	no binding (tested: supernatant 1:5, 1:25, 1:250)	0.42 µg/mL	0.19 µg/mL	
